According to paper PMC4128672:

Target: CDC42 (cell division cycle 42) (rat (endogenous in rat testis)) (UniProt Q8CFN2)
Assay: proximity ligation; Duolink II in situ PLA on Bouin-fixed, paraffin-embedded rat testis sections; antigen retrieval in citrate buffer (10 mM, pH 6.0, 0.05% Tween 20); anti-ApoH goat polyclonal 2.5 ug/ml and anti-CDC42 rabbit polyclonal 5 ug/ml; probes anti-rabbit PLUS and anti-goat MINUS; controls with one primary antibody only

UniProt Q8CFN2, sequence (Q8CFN2 whole entry): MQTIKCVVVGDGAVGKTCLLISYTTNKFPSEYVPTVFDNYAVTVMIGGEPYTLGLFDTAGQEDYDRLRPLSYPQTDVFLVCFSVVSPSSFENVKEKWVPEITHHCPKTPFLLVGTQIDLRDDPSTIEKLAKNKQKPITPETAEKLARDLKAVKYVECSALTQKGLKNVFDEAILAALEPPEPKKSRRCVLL

- PLA signals per 0.25 mm^2 (PLA signals/0.25 mm^2): 312
Substance: APOH (apolipoprotein H) (from UniProt P26644 20-297) (natural protein)
